Molecular target: Xn-XptA2 wt (A subunit, TcA, of the ABC toxin complex of Xenorhabdus nematophilus) (Xenorhabdus nematophilus)
Experiment: cryo-EM structure; single particle analysis, 1.5 mg/mL protein in 10 mM Tris, 100 mM NaCl, pH 7.5; C5 symmetry

Substance “Xn-XptA2 wt (A subunit, TcA, of the ABC toxin complex of Xenorhabdus nematophilus) (natural protein)” has a stoichiometry N of 5.

— publication PMC11843870
